This is an account of results in article PMC548379.

In the data set the target is NF-kB p50 (rhNF-kB p50) (Homo sapiens, UniProt P19838 1-433). Put plainly: competition.
Chain of NF-kB p50 (rhNF-kB p50) (P19838 1-433): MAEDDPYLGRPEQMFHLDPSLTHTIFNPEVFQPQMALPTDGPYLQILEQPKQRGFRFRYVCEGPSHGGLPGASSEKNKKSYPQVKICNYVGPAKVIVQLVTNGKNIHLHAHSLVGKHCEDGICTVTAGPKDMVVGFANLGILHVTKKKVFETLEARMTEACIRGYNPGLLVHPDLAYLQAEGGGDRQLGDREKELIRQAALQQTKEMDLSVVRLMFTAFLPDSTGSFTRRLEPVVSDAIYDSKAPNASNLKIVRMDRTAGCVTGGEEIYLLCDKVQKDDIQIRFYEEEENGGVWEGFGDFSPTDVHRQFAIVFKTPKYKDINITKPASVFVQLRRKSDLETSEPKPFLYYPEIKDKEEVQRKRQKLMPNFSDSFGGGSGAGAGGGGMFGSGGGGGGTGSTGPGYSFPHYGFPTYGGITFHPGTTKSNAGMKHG

B1: cold NF-kB specific competition probe (dsDNA)
DNA 1: AGTTGAGGGGACTTTCCCAGGCTTTTT
DNA 2: GCCTGGGAAAGTCCCCTCAACTTTTTT
B1: the binding result was “binds”.

B2: cold NF-kB nonspecific competition probe (dsDNA)
DNA 1: AGTTGAGATTACTTTCACCAGGCTTTTT
DNA 2: GCCTGTGAAAGTAATCTCAACTTTTTT
As to B2, the binding result is “no binding”.
